This note sets out measurements from article PMC11053023, “Mechanism of Ψ-Pro/C-degron recognition by the CRL2^FEM1B ubiquitin ligase” (Nature Communications, 2024).

For this test, the target named is FEM1B-EB-EC ternary complex (human) (UniProt Q9UK73). Description: SEC; peaks of the purified FEM1B-EB-EC complexes (Supplementary Fig. 1g); how the masses were found is not given.

“FEM1B-EB-EC ternary complex (from UniProt Q9UK73 1-627; Q15370 1-118; Q15369 17-112)” showed a stoichiometry N of 2.

The stoichiometry N is the number of molecules, sites or subunits per partner or assembly.
